Tests used:
human CXCR2 [1] = target: T1, human CXCR2 (human, UniProt P25025 1-360); test: cell-based or functional assay
T1 sequence: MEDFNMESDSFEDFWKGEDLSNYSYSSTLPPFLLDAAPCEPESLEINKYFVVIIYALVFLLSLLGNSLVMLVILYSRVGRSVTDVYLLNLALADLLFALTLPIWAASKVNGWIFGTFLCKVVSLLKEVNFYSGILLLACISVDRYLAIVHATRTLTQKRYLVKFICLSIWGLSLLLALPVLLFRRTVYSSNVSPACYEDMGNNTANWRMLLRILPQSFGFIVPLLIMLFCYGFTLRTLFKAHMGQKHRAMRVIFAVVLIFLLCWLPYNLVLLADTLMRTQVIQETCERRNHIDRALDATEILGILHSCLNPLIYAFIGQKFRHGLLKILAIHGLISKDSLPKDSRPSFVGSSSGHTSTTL

human CXCR2 [2] = target: T1, human CXCR2; test: cell-based or functional assay; remark: listed apart in the source
human CXCR2 [3] = target: T1, human CXCR2; test: cell-based or functional assay; remark: listed apart in the source
human CXCR2 [4] = target: T1, human CXCR2; test: cell-based or functional assay; remark: listed apart in the source
human CXCR2 [5] = target: T1, human CXCR2; test: cell-based or functional assay; remark: listed apart in the source
human CXCR2 [6] = target: T1, human CXCR2; test: flow cytometry, CXCR2-transfected Expi293F cells
Experimental: Harvested cells were resuspended in FACS buffer (1×PBS+0.5% (w/v) bovine serum albumin (BSA)+2 mM EDTA pH 7.2). Approximately 2×10⁵ cells were added per well in a 96-well round-bottomed plate. Cells were pelleted by centrifugation at 400 g for 5 mins at 4° C. and supernatants discarded. 25 μL of each test antibody or control antibody was added to the cells and incubated for 30 minutes at 4° C. Cells were washed twice in 100 μL FACS buffer followed by centrifugation at 400 g for 5 mins at 4° C.
For detection, 50 μL of secondary antibody (Table 2) was added to relevant samples. Commercially available antibodies that bound to transfected CXCR family members were used as positive controls to ensure that the cells were expressing the receptors. Cells were washed twice in 200 μL of FACS buffer followed by centrifugation at 400 g for 5 mins at 4° C. Before sample acquisition, cells were resuspended in 100 μL of FACS buffer. Samples were acquired using the high throughput sampler on a FACSCanto™ II cytometer (Beckton-Dickinson).
A further six heavy chain combinational variants comprising four or more amino acid substitutions were produced as provided in Table 12. […] Each heavy chain was co-expressed with light chain c (SEQ ID NO:110) to produce an antibody variant. Antibodies were purified and tested for CXCR2 binding activity as described in General Methods.

B1: BKO-4A8-101c (antibody, human IgG4 S228P, lambda, V domains shown)
VH: EVQLLESGGGLVQPGGSLRLSCAASGFTFSSSTQSWVRQPPGKGLEWVSAISGRGRSTYYADSVKGRFTISRDNSKNTLYLQMNSLRAEDTAVYYCAIQAGYWGQGILVTVSS
VL: QSALTQPPSASGSPGQSVTISCIGTSSDVGGYNYVSWYQQHPGKAPKLMIYEVSKRPSGVPDRFSGSKSGNTASLTVSGLQAEDEADYYCSSYAGSNNFGVFGGGTKLTVLG
B1 was tested, and the “CXCL1 Fold Improvement over 4A8 WT” value (human CXCR2 [1]) was 1.49 fold, the “CXCL1 IC50, Tango assay” value (human CXCR2 [1]) was 0.63 nM and the “CXCL8 Fold Improvement over 4A8 WT” value (human CXCR2 [1]) was 2.39 fold. The “CXCL8 IC50, Tango assay” value (human CXCR2 [1]) was 0.28 nM, the “IC50 mean, Hu CXCL1, Tango β-arrestin” value (human CXCR2 [2]) was 0.27 nM and the “IC50 mean, Hu CXCL2, Tango β-arrestin” value (human CXCR2 [2]) was 0.36 nM. The “IC50 mean, Hu CXCL3, Tango β-arrestin” value (human CXCR2 [2]) was 0.39 nM, the “IC50 mean, Hu CXCL5, Tango β-arrestin” value (human CXCR2 [2]) was 0.3 nM and the “IC50 mean, Hu CXCL6, Tango β-arrestin” value (human CXCR2 [2]) was 0.28 nM. For the same binder, the “IC50 mean, Hu CXCL7, Tango β-arrestin” value (human CXCR2 [2]) was 0.44 nM, the “IC50 mean, Hu CXCL8, Tango β-arrestin” value (human CXCR2 [2]) was 0.34 nM and the “IC50 mean, Hu CXCL1, calcium flux” value (human CXCR2 [3]) was 1.55 nM. The “IC50 mean, Hu CXCL2, calcium flux” value (human CXCR2 [3]) was 1.62 nM, the “IC50 mean, Hu CXCL3, calcium flux” value (human CXCR2 [3]) was 0.63 nM and the “IC50 mean, Hu CXCL5, calcium flux” value (human CXCR2 [3]) was 1.03 nM. The “IC50 mean, Hu CXCL6, calcium flux” value (human CXCR2 [3]) was 1.71 nM, the “IC50 mean, Hu CXCL7, calcium flux” value (human CXCR2 [3]) was 2.14 nM and the “CXCL1 IC50, β-arrestin recruitment” value (human CXCR2 [4]) was 0.38 nM. For the same binder, the “CXCL5 IC50, β-arrestin recruitment” value (human CXCR2 [4]) was 0.34 nM, the “CXCL8 IC50, β-arrestin recruitment” value (human CXCR2 [4]) was 0.34 nM and the “CXCL1 IC50, calcium flux” value (human CXCR2 [5]) was 1.47 nM. The EC50 (human CXCR2 [6]) was 3.05 nM, the “Max binding (MFI Percent of 4A8 WT)” value (human CXCR2 [6]) was 89% and the “Max binding (MFI)” value (human CXCR2 [6]) was 55000 MFI.

Source: US20240301076A1 (CEPHALON, published 2024)
